Article doi:10.1101/2022.01.20.477176v3

Columns and labels:
Assay in all cases: purified protein
purified protein [1] = substrate: C=C(C)C(=O)O; conditions: 150 μM NADH (saturating), pH 6.5
purified protein [2] = substrate: NC(=O)C1=CN([C@@H]2O[C@H](COP(=O)(O)OP(=O)(O)OC[C@H]3O[C@@H](n4cnc5c(N)ncnc54)[C@H](O)[C@@H]3O)[C@@H](O)[C@H]2O)C=CC1; conditions: 1 mM acrylate, pH 6.5
purified protein [3] = substrate: C=CC(=O)O; conditions: 150 μM NADH (saturating), pH 6.5

B1: ARD (NADH:acrylate oxidoreductase) (Vibrio harveyi) (protein)
chain: MAQLVDEIVFQSGVKLHNRIVMAPMTIQSAFFDGGVTQEMINYYAARSGGAGAIIVESAFVENYGRAFPGALGIDTDSKIAGLTKLADAIKAKGSKAILQIYHAGRMANPEFNGGHQPISASPVAALRDNAETPLEMTKEQIEEMIERFGDAVNRAILAGFDGVEIHGANTYLIQQFFSPHSNRRNDKWGGNIERRTSFPLAVLAKTKQVAEQHNKSDFIIGYRFSPEEIEQPGIRFDDTMFLLDKLATHGLDYFHFSMGSWLRNSIVTPEDQEPLIDKYRKLQSESVAKVPVIGVGGIAQRKDAENALEQGYDMVSVGKGYLVEPTWANKALNDETCAEFADIAQQEALQIPTPLWEIMDYMIVDSAAEALKHQRIKELQNVPIKFNSGEYTAYGRGHNGDLPVTVTFSEDKILDIVVDSSKESDGIANPAFERIPQQILDGQTLNIDVISGATVSSQAVLDGVSNAVDLAGGNSEALRCKAKEAVAWSSKTIEETVDIVVVGGGGAGLSATLTALDKGKSVVLLEKFPAIGGNTVRTGGWVNAAEPKWQGDFPALPGEKETLMLLAKTAESEFSGEYLEDFKVLKAQLDGYFTDLENGKQYLFDSVELHRIQTYLGGKRTDLNGESIYGQYDLVETLTSRSMESIDWLSEKGIDFDRSVVEIPVGALWRRAHKPKRPKGVEFIDKLSKRIQEQNGRIITDTRATDLMVDNGKVVGIKAVQADGTELILHVNHGVVLASGGFGANTQMIKKYNTYWKEIADDIKTTNSPALVGDGIEIGEKAGAELVGMGFVQLMPVGDPKSGALLTGLIVPPENFVFVNKQGKRFVDECGSRDVLSEAFFDNGGLIYMIADENIRQTAANTSDETIEREIKEGIIIQADTLEELAEKIGVPTQELTNTIAQYNACVDAGQDPEFHKSAFGLKVEKAPFYATPRQPSVHHTMGGLKIDTKARVIGKDGEVIQGLYAAGEVTGGIHAGNRLGGNALIDIFTYGRIAGESASDLV
Km (purified protein [1]): 690 ± 140 µM | kcat (purified protein [1]): 2.5 ± 0.2 s⁻¹ | Km (purified protein [2]): 14 ± 1 µM | Km (purified protein [3]): 16 ± 1 µM | kcat (purified protein [3]): 19 ± 1 s⁻¹
